Measured values from article doi:10.1101/2024.03.15.585200.

Target: Toxoplasma gondii ABCB7 homolog (TGGT1_269000) (Toxoplasma gondii)
Assay: native gel or EMSA

Toxoplasma gondii ABCB7 homolog (TGGT1_269000) (natural protein)
stoichiometry N: 2
